# Data as given in paper PMC8347636.
# B1: CD24: N36Q (protein)
# parent chain: MGRAMVARLGLGLLLLALLLPTQIYSSETTTGTSSNSSQSTSNSGLAPNPTNATTKAAGGALQSTASLFVVSLSLLHLYS
# B2: CD24: kifunensine, WT-CD24 (protein)
# parent chain: B1 parent chain
# B3: CD24: N52Q (protein)
# parent chain: B1 parent chain
# B4: CD24: N36,52Q (protein)
# parent chain: B1 parent chain
# B5: CD24: kifunensine, wild type CD24 (protein)
# parent chain: B1 parent chain
# Assays:
# [1] = immunofluorescence, nuclear localisation, all cell lines; conditions: glycan lost; control: wild type ER-tag CD24
# [2] = immunofluorescence, % cells with plasma membrane CD24, Hs578T; conditions: glycan lost; control: wild type ER-tag CD24
# [3] = immunofluorescence, % cells with plasma membrane CD24, MCF-7; conditions: glycan lost; control: wild type ER-tag CD24
# [4] = immunofluorescence, % cells with plasma membrane CD24, HEK293T; conditions: glycan lost; control: wild type ER-tag CD24
# [5] = immunofluorescence, % cells with plasma membrane CD24, MDA-MB-231; conditions: glycan lost; control: wild type ER-tag CD24
# [6] = confocal immunofluorescence, % cells with plasma membrane CD24, MDA-MB-231; conditions: glycan changed form; control: untreated cells, same construct
# [7] = confocal immunofluorescence, % cells with plasma membrane CD24, Hs578T; conditions: glycan changed form; control: untreated cells, same construct
# [8] = confocal immunofluorescence, plasma membrane vs cytoplasm, MCF-7; conditions: glycan changed form; control: untreated cells, same construct
# [9] = confocal immunofluorescence, plasma membrane vs cytoplasm, HEK293T; conditions: glycan changed form; control: untreated cells, same construct
Protein,localisation_or_trafficking [1],localisation_or_trafficking [2],localisation_or_trafficking [3],localisation_or_trafficking [4],localisation_or_trafficking [5],localisation_or_trafficking [6],"localisation_or_trafficking, other: % decrease in cells with membrane CD24 [7]",localisation_or_trafficking [8],localisation_or_trafficking [9]
B1,no change,decreases,no change,decreases,no change,–,–,–,–
B2,–,–,–,–,–,decreases,–,–,–
B3,no change,decreases,no change,decreases,decreases,–,–,–,–
B4,no change,decreases,no change,decreases,decreases,–,–,–,–
B5,–,–,–,–,–,–,decreases,no change,decreases
